According to paper PMC4477864:

Experiments:
[1] = biological target: tubulin purified from cow brain (phosphocellulose-purified), assembled as vinblastine-induced curls, (cow) (UniProt Q2T9S0); experiment: co-sedimentation
[2] = biological target: CENP-F N558 (amino acids 1–558) (human); experiment: sucrose gradient sedimentation + SEC
[3] = biological target: subtilisin-treated Taxol-stabilized MTs (S-MTs) (cow) (UniProt Q2T9S0); experiment: TIRF microscopy of MT-associated GFP fluorescence
Chain of subtilisin-treated Taxol-stabilized MTs (S-MTs) (cow) (Q2T9S0 whole entry, looked up): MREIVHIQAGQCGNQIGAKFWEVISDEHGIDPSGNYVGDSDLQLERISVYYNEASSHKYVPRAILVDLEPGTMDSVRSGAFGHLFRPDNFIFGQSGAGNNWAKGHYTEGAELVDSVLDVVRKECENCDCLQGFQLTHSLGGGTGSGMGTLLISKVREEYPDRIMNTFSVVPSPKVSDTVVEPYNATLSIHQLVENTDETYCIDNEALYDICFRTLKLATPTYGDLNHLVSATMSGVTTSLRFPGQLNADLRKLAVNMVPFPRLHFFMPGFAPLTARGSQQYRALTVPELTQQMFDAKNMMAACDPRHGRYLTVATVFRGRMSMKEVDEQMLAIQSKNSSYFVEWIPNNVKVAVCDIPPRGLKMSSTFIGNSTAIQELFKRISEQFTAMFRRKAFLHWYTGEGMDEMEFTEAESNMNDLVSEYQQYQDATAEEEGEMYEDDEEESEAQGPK

Kd [1]	fold lower KD than for Tx-MTs [1]	fold stronger binding than to Tx-MTs [1]	stoichiometry N [2]	fold reduction of MT-associated GFP fluorescence against untreated MTs [3]	Substance
16 nM	> 5 fold	< 2 fold	2	–	CENP-F N558 (amino acids 1–558) (domain or fragment)
–	–	–	–	8 fold	N436-sfGFP (CENP-F amino acids 1–436 fused to super-folding GFP) (domain or fragment)
